# Source: patent US20180017572A1 (Hoffmann-La Roche, published 2018)
# B1: bispecific anti-HER2 antibody, common light chain (bispecific antibody, human IgG1, kappa)
# light: DIQMTQSPSSLSASVGDRVTITCKASQDVSTAVAWYQQKPGKAPKLLIYSASFRYTGVPSRFSGSRSGTDFTLTISSLQPEDFATYYCQQHYTTPPTFGQGTKVEIKRTVAAPSVFIFPPSDEQLKSGTASVVCLLNNFYPREAKVQWKVDNALQSGNSQESVTEQDSKDSTYSLSSTLTLSKADYEKHKVYACEVTHQGLSSPVTKSFNRGEC
# heavy 1: not shown
# heavy 2: not shown
# notes: Knob-into-hole bispecific antibody with a common light chain
# B2: bispecific anti-HER2 antibody, common light chain, glycoengineered (bispecific antibody, human IgG1, kappa)
# light: B1 light
# heavy 1: not shown
# heavy 2: not shown
# notes: The glycan change is not described
# B3: bispecific anti-HER2 antibody, CrossMab format (bispecific antibody, human IgG1, kappa)
# heavy 1: not shown
# heavy 2: not shown
# light 1: DIQLTQPPSVSVAPGQTARITCGASQDVSTAVAWYQQKPGQAPVLVVYSASFLYSGIPSRFSGSRSGTDFTLTISRVEAGDEADYYCQQHYTTPPTFGTGTKVTVLRTVAAPSVFIFPPSDEQLKSGTASVVCLLNNFYPREAKVQWKVDNALQSGNSQESVTEQDSKDSTYSLSSTLTLSKADYEKHKVYACEVTHQGLSSPVTKSFNRGEC
# light 2: DIQMTQSPSSLSASVGDRVTITCKASQDVSIGVAWYQQKPGKAPKLLIYSASYRYTGVPSRFSGSGSGTDFTLTISSLQPEDFATYYCQQYYIYPYTFGQGTKVEIKSSASTKGPSVFPLAPSSKSTSGGTAALGCLVKDYFPEPVTVSWNSGALTSGVHTFPAVLQSSGLYSLSSVVTVPSSSLGTQTYICNVNHKPSNTKVDKKVEPKSC
# notes: CrossMab format with four different chains
# Target: T1, complement factor C1q (UniProt P02745 23-245; P02746 28-253; P02747 29-245)
# T1 construct: also called Clq; recombinant complement factor C1q
# Assay: flow cytometry: BT-474 cells with 10 µg/mL antibody, then 10 µg/mL C1q, detected with PE-labeled anti-C1q antibody
# Method: About 3×10⁵ BT-474 cells were incubated with 10 μg/mL of indicated antibody on ice in RPMI 1640 supplemented with 10% FCS. After 30 min. incubation on ice 10 μg/mL C1q (Sigma Aldrich, Cat. No. C1740) was added. The incubation was continued thereafter for an additionally 20 min. on ice. After washing the cells were resuspended in 200 μL medium and counterstained with a PE-labeled anti-C1q antibody (Cedarlane, Cat. No. CL7611PE-SP). After an incubation time of 30 min. on ice cells were washed twice and analyzed on a FACS Canto
# T1 sequence (P02745 23-245 limits assumed, chain 1 of 3): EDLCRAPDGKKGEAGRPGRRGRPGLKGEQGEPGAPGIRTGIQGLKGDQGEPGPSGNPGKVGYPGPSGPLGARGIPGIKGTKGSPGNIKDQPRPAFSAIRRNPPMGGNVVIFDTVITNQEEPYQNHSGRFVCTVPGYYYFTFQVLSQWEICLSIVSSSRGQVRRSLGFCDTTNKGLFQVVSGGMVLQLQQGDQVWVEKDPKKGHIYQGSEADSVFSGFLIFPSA
# T1 sequence (P02746 28-253 limits assumed, chain 2 of 3): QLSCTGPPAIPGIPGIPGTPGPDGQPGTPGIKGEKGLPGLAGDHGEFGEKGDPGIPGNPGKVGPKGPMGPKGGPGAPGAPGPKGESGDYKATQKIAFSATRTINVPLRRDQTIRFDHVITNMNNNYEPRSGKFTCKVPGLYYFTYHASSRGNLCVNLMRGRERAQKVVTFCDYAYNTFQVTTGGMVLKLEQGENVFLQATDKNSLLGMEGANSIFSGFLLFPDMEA
# T1 sequence (P02747 29-245 limits assumed, chain 3 of 3): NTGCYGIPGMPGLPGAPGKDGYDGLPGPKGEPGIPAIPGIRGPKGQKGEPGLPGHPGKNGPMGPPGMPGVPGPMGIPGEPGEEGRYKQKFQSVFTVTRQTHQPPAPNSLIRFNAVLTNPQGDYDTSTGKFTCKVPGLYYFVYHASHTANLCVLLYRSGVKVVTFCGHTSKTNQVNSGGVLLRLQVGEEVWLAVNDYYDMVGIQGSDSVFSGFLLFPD
row,Binder,PE-signal (geomean) [geomean PE-signal]
1,B1,1440
2,B2,1040
3,B3,489
